Target: mG-CSF (recombinant murine G-CSF, R&D Systems Cat #414-CS) (mouse) (UniProt P09920)
Experiment: cell-based or functional assay

Sequence of UniProt P09920 (P09920 31-208 limits assumed): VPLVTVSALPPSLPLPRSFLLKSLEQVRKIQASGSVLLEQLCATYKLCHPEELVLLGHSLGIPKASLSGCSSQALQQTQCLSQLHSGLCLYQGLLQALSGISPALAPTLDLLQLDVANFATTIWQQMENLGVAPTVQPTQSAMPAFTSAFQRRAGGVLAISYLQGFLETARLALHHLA

inhibition of mG-CSF proliferation of hG-CSFR BaF3 cells (MTS reduction, 48 hours), IC50 [nM] | Substance
0.01 | Anti-G-CSF (MAB414) (antibody)
0.022 | soluble hG-CSFR-Fc protein (from UniProt Q99062 25-627) (Fc fusion)

— patent US20110110934A1
